The results in this text go back to PMC10926643 (2024).

The experiment has as its target T1, recombinant FGF12 fused with the His-tag (UniProt P61328 1-243).
T1 chain: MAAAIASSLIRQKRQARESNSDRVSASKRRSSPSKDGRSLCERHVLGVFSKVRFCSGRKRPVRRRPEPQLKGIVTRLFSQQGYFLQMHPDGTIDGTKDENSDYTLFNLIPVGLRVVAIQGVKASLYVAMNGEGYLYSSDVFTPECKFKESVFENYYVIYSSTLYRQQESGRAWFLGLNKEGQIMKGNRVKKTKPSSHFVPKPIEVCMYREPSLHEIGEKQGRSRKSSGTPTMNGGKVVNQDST
In words: SPR. (SPR reads the build-up and loss of mass on a sensor chip optically.)

B1: recombinant galectin-8 (natural protein)
chain: MMLSLNNLQNIIYNPVIPFVGTIPDQLDPGTLIVIRGHVPSDADRFQVDLQNGSSMKPRADVAFHFNPRFKRAGCIVCNTLINEKWGREEITYDTPFKREKSFEIVIMVLKDKFQVAVNGKHTLLYGHRIGPEKIDTLGIYGKVNIHSIGFSFSSDLQSTQASSLELTEISRENVPKSGTPQLRLPFAARLNTPMGPGRTVVVKGEVNANAKSFNVDLLAGKSKDIALHLNPRLNIKAFVRNSFLQESWGEEERNITSFPFSPGMYFEMIIYCDVREFKVAVNGVHSLEYKHRFKELSSIDTLEINGDIHLLEVRSW
The Kd is the free concentration of one partner at which half of the binding sites on the other are occupied at equilibrium, for simple one-to-one binding. Consider B1, for which the Kd was 581 nM.
